Data from paper PMC9978855 (Acta Pharmaceutica Sinica. B, 2022).

Target: NLRP3 protein, purchased recombinant (UniProt Q96P20 1-1036)
Test: SPR

NLRP3 protein, purchased recombinant, sequence (Q96P20 whole entry): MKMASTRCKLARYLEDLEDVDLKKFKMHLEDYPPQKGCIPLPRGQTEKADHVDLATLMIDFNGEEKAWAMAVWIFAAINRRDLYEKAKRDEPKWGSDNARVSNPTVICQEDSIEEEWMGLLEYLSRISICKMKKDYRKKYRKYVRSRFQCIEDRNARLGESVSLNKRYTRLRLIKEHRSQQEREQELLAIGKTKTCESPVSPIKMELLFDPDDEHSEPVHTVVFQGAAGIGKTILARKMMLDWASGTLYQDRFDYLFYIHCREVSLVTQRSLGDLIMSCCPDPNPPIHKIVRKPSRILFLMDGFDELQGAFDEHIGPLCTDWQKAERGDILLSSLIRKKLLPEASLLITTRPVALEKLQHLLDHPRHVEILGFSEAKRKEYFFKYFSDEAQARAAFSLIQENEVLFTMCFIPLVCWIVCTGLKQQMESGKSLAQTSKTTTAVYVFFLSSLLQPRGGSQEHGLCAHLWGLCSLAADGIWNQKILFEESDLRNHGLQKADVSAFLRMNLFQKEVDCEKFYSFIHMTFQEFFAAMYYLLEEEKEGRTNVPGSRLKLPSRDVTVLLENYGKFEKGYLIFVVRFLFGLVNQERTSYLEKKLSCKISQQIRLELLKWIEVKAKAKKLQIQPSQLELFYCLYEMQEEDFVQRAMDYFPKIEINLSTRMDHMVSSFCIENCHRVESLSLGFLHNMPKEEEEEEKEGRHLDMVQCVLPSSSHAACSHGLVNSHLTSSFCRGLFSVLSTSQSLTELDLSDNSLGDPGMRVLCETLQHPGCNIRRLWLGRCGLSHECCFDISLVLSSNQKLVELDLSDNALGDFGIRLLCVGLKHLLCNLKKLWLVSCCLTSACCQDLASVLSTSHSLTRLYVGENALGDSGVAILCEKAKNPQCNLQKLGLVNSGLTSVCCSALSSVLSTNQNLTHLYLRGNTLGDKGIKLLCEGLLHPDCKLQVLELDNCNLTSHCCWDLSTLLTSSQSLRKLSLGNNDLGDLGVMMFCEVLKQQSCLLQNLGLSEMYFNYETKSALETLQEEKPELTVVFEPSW

Kd: ~3.45 µM
B1: ASCT2 protein (alanine-serine-cysteine transporter 2), purchased recombinant (natural protein, UniProt Q15758 1-541, looked up)
chain: MVADPPRDSKGLAAAEPTANGGLALASIEDQGAAAGGYCGSRDQVRRCLRANLLVLLTVVAVVAGVALGLGVSGAGGALALGPERLSAFVFPGELLLRLLRMIILPLVVCSLIGGAASLDPGALGRLGAWALLFFLVTTLLASALGVGLALALQPGAASAAINASVGAAGSAENAPSKEVLDSFLDLARNIFPSNLVSAAFRSYSTTYEERNITGTRVKVPVGQEVEGMNILGLVVFAIVFGVALRKLGPEGELLIRFFNSFNEATMVLVSWIMWYAPVGIMFLVAGKIVEMEDVGLLFARLGKYILCCLLGHAIHGLLVLPLIYFLFTRKNPYRFLWGIVTPLATAFGTSSSSATLPLMMKCVEENNGVAKHISRFILPIGATVNMDGAALFQCVAAVFIAQLSQQSLDFVKIITILVTATASSVGAAGIPAGGVLTLAIILEAVNLPVDHISLILAVDWLVDRSCTVLNVEGDALGAGLLQNYVDRTESRSTEPELIQVKSELPLDPLPVPTEEGNPLLKHYRGPAGDATVASEKESVM
